Paper PMC4153629

How the values were obtained:
[1] = target: GH67 α-glucuronidase Agu67A from Caldicellulosiruptor lactoaceticus 6A (Caldicellulosiruptor lactoaceticus 6A); assay: SEC; Superdex 200 column (33 mL elution volume), 50 mM sodium citrate, 150 mM NaCl, pH 6.0, 0.5 mL/min; apparent Mw from a calibration curve of log (Mw) vs. elution volume; self-association (homodimer)
[2] = target: GH family 10 endo-β-1,4-xylanase Xyn10A from Caldicellulosiruptor lactoaceticus 6A (Caldicellulosiruptor lactoaceticus 6A); assay: as above

stoichiometry N [1]	stoichiometry N [2]	Substance
2	–	GH67 α-glucuronidase Agu67A from Caldicellulosiruptor lactoaceticus 6A (enzyme)
–	2	GH family 10 endo-β-1,4-xylanase Xyn10A from Caldicellulosiruptor lactoaceticus 6A (enzyme)
